Results on five sequences are retold here after the supplement of paper PMC11246515.

The nature of this data set: total protein half-life in vivo (active degradation + dilution); higher = more stable protein.
Where [1] appears, read: E. coli NCM3722 delta-clpP delta-lon delta-hslV, growth: N-lim chemostat, doubling time 6 h.
Setting [2] is: E. coli NCM3722 delta-clpP, growth: N-lim chemostat, doubling time 6 h.
The mark [3] stands for this setting: E. coli NCM3722 delta-hslV, growth: N-lim chemostat, doubling time 6 h.
[4] abbreviates: E. coli NCM3722 delta-lon, growth: N-lim chemostat, doubling time 6 h.
Where [5] appears, read: E. coli NCM3722 delta-smpB, growth: N-lim chemostat, doubling time 6 h.
The mark [6] stands for this setting: wild type E. coli NCM3722, growth: C-lim chemostat, doubling time 3 h.
Where [7] appears, read: wild type E. coli NCM3722, growth: C-lim chemostat, doubling time 6 h.
Setting [8] is: wild type E. coli NCM3722, growth: C-lim chemostat, doubling time 12 h.
[9] abbreviates: wild type E. coli NCM3722, growth: N-lim chemostat, doubling time 6 h.
Setting [10] is: wild type E. coli NCM3722, growth: N-lim chemostat, doubling time 12 h.
Setting [11] is: wild type E. coli NCM3722, growth: P-lim chemostat, doubling time 6 h.
Setting [12] is: wild type E. coli NCM3722, growth: P-lim chemostat, doubling time 12 h.

± gives the standard deviation of the averaged measurements.

For the sequence “MSKLDLNALNELPKVDRILALAETNAELEKLDAEGRVAWALDNLPGEYVLSSSFGIQAAVSLHLVNQIRPDIPVILTDTGYLFPETYRFIDELTDKLKLNLKVYRATESAAWQEARYGKLWEQGVEGIEKYNDINKVEPMNRALKELNAQTWFAGLRREQSGSRANLPVLAIQRGVFKVLPIIDWDNRTIYQYLQKHGLKYHPLWDEGYLSVGDTHTTRKWEPGMAEEETRFFGLKRECGLHEG”, the “total protein half-life in vivo” value reads like this: under setting [1], 4.38 ± 0.8 h; under setting [2], 4.21 ± 0.56 h; under setting [3], 1.29 ± 0.27 h; under setting [4], 1.64 ± 0.023 h; under setting [5], 1.37 ± 0.087 h; under setting [6], 2.11 ± 0.095 h. The “total protein half-life in vivo” value runs as follows: under setting [7], 2.91 ± 0.58 h; under setting [8], 4.05 ± 0.29 h; under setting [9], 1.47 ± 0.077 h; under setting [10], 1.721 ± 0.012 h; under setting [11], 3.28 ± 0.37 h; under setting [12], 6.15 ± 0.27 h.
As to “MRNLVKYVGIGLLVMGLAACDDKDTNATAQGSVAESNATGNPVNLLDGKLSFSLPADMTDQSGKLGTQANNMHVWSDATGQKAVIVIMGDDPKEDLAVLAKRLEDQQRSRDPQLQVVTNKAIELKGHKMQQLDSIISAKGQTAYSSVILGNVGNQLLTMQITLPADDQQKAQTTAENIINTLVIQ [P0AEE1]”, the “total protein half-life in vivo” value runs as follows: under setting [1], 6.11 ± 1.1 h; under setting [2], 5.96 ± 0.21 h; under setting [3], 5.42 ± 0.085 h; under setting [4], 6.24 ± 0.22 h; under setting [5], 6.05 ± 1.3 h; under setting [8], 11.3 ± 1 h. The “total protein half-life in vivo” value reads like this: under setting [9], 5.6 ± 0.16 h; under setting [10], 10.9 ± 0.59 h; under setting [11], 5.55 ± 1.2 h; under setting [12], 10.9 ± 0.47 h.
For the sequence “MELSSLTAVSPVDGRYGDKVSALRGIFSEYGLLKFRVQVEVRWLQKLAAHAAIKEVPAFAADAIGYLDAIVASFSEEDAARIKTIERTTNHDVKAVEYFLKEKVAEIPELHAVSEFIHFACTSEDINNLSHALMLKTARDEVILPYWRQLIDGIKDLAVQYRDIPLLSRTHGQPATPSTIGKEMANVAYRMERQYRQLNQVEILGKINGAVGNYNAHIAAYPEVDWHQFSEEFVTSLGIQWNPYTTQIEPHDYIAELFDCVARFNTILIDFDRDVWGYIALNHFKQKTIAGEIGSSTMPHKVNPIDFENSEGNLGLSNAVLQHLASKLPVSRWQRDLTDSTVLRNLGVGIGYALIAYQSTLKGVSKLEVNRDHLLDELDHNWEVLAEPIQTVMRRYGIEKPYEKLKELTRGKRVDAEGMKQFIDGLALPEEEKARLKAMTPANYIGRAITMVDELK [P0AB89]”, the “total protein half-life in vivo” value is, setting by setting: under setting [1], 4.77 ± 0.41 h; under setting [2], 5.24 ± 0.62 h; under setting [3], 5.18 ± 0.54 h; under setting [4], 5.11 ± 0.4 h; under setting [5], 4.63 ± 0.12 h; under setting [6], 3.01 ± 0.1 h. For the same sequence, the “total protein half-life in vivo” value by setting is: under setting [7], 5.55 ± 0.32 h; under setting [8], 10.5 ± 0.86 h; under setting [9], 4.64 ± 0.062 h; under setting [10], 8.57 ± 0.16 h; under setting [11], 5.79 ± 0.6 h; under setting [12], 12.25 ± 0.033 h.
On to “MRQTKTGILLANLGTPDAPTPEAVKRYLKQFLSDRRVVDTSRLLWWPLLRGVILPLRSPRVAKLYASVWMEGGSPLMVYSRQQQQALAQRLPEMPVALGMSYGSPSLESAVDELLAEHVDHIVVLPLYPQFSCSTVGAVWDELARILARKRSIPGISFIRDYADNHDYINALANSVRASFAKHGEPDLLLLSYHGIPQRYADEGDDYPQRCRTTTRELASALGMAPEKVMMTFQSRFGREPWLMPYTDETLKMLGEKGVGHIQVMCPGFAADCLETLEEIAEQNREVFLGAGGKKYEYIPALNATPEHIEMMANLVAAYR”, for which the “total protein half-life in vivo” value reads like this: under setting [2], 6.11 ± 0.13 h; under setting [3], 6.43 ± 0.78 h; under setting [4], 5.98 ± 0.68 h; under setting [5], 5.63 ± 0.32 h; under setting [6], 2.96 ± 0.033 h; under setting [7], 6.24 ± 0.92 h. Besides, the “total protein half-life in vivo” value was 10.5 ± 2.5 h under setting [8]; 5.33 ± 0.98 h under setting [9]; 12.1 ± 0.19 h under setting [10]; 5.73 ± 0.36 h under setting [11]; 12.2 ± 1.5 h under setting [12].
On to “MTEQEKTSAVVEETREAVDTTSQPVATEKKSKNNTALILSAVAIAIALAAGIGLYGWGKQQAVNQTATSDALANQLTALQKAQESQKAELEGIIKQQAAQLKQANRQQETLAKQLDEVQQKVATISGSDAKTWLLAQADFLVKLAGRKLWSDQDVTTAAALLKSADASLADMNDPSLITVRRAITDDIASLSAVSQVDYDGIILKLNQLSNQVDNLRLADNDSDGSPMDSDGEELSSSISEWRINLQKSWQNFMDNFITIRRRDDTAVPLLAPNQDIYLRENIRSRLLVAAQAVPRHQEETYRQALENVSTWVRAYYDTDDATTKAFLDEVDQLSQQNISMDLPETLQSQAMLEKLMQTRVRNLLAQPAAGTTEAKPAPAPQADTPAAAPQGE”, for which the “total protein half-life in vivo” value by setting is: under setting [1], 5.965 ± 0.022 h; under setting [2], 6.63 ± 1.1 h; under setting [3], 6.31 ± 0.23 h; under setting [4], 6.06 ± 0.28 h; under setting [5], 6.54 ± 0.59 h; under setting [6], 3.15 ± 0.072 h. For the same sequence, the “total protein half-life in vivo” value is, setting by setting: under setting [7], 5.98 ± 0.23 h; under setting [8], 11.3 ± 1.5 h; under setting [9], 6.09 ± 0.16 h; under setting [10], 13.7 ± 0.83 h; under setting [11], 6.17 ± 0.24 h; under setting [12], 12.8 ± 1.5 h.
